To fix the notation:
T1: FcγRIIa type R extracellular domain, C-terminal His tag (human, UniProt P12318 34-217)
T1 construct: extracellular domain; also called FcgRIIaR; FcγRIIaR; not shown: His tag at the C terminus
T1 sequence (looked up): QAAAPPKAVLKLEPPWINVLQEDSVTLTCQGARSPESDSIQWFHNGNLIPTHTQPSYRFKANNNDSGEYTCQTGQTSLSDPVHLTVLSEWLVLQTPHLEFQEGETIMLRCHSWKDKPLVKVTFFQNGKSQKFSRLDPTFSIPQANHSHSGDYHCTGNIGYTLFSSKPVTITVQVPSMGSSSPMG

B1: IL6R-BP213/IL6R-L (antibody, human IgG1, kappa)
heavy: QVQLQESGPGLVKPSETLSLTCAVSGHSISHDHAWSWVRQPPGEGLEWIGFISYSGITNYNPSLQGRVTISRDNSKNTLYLQMNSLRAEDTAVYYCARSLARTTAMDYWGEGTLVTVSSASTKGPSVFPLAPSSKSTSGGTAALGCLVKDYFPEPVTVSWNSGALTSGVHTFPAVLQSSGLYSLSSVVTVPSSSLGTQTYICNVNHKPSNTKVDKKVEPKSCDKTHTCPPCPAPDLLGGDSVFLFPPKPKDTLMISRTPEVTCVVVDVSDEDGEVKFNWYVDGVEVHNAKTKPREEQYNSTYRVVSVLTVLHQDWLNGKEYKCKVSNKALPRPIEKTISKAKGQPREPQVYTLPPSRDELTKNQVSLTCLVKGFYPSDIAVEWESNGQPENNYKTTPPVLDSDGSFFLYSKLTVDKSRWQQGNVFSCSVMHEALHNHYTQESLSLSP
light: not shown
notes: Anti-human IL-6 receptor IgG1
B2: IL6R-BP209/IL6R-L (antibody, human IgG1, kappa)
heavy: B1 heavy with D235E, G239D, K328A
light: not shown
notes: Anti-human IL-6 receptor IgG1
B3: IL6R-BP198/IL6R-L (antibody, human IgG1, kappa)
heavy: B1 heavy with L236Y, K328A, R332K
light: not shown
notes: Anti-human IL-6 receptor IgG1
B4: IL6R-BP195/IL6R-L (antibody, human IgG1, kappa)
heavy: B1 heavy with L236Y, G239D, Y298D, K328A, R332K
light: not shown
notes: Anti-human IL-6 receptor IgG1
B5: IL6R-BP203/IL6R-L (antibody, human IgG1, kappa)
heavy: B1 heavy with D235E, G239D, D270H
light: not shown
notes: Anti-human IL-6 receptor IgG1
B6: IL6R-BP197/IL6R-L (antibody, human IgG1, kappa)
heavy: B1 heavy with L236Y, G239D, Y298D, K328D, R332K
light: not shown
notes: Anti-human IL-6 receptor IgG1
B7: IL6R-BP199/IL6R-L (antibody, human IgG1, kappa)
heavy: B1 heavy with D270H, G273P, K328D
light: not shown
notes: Anti-human IL-6 receptor IgG1
B8: IL6R-BP208/IL6R-L (antibody, human IgG1, kappa)
heavy: B1 heavy with G239D
light: not shown
notes: Anti-human IL-6 receptor IgG1
B9: IL6R-BP196/IL6R-L (antibody, human IgG1, kappa)
heavy: B1 heavy with D235E, L236Y, K328A, R332K
light: not shown
notes: Anti-human IL-6 receptor IgG1
B10: IL6R-BP211/IL6R-L (antibody, human IgG1, kappa)
heavy: B1 heavy with K328A
light: not shown
notes: Anti-human IL-6 receptor IgG1
B11: IL6R-BP207/IL6R-L (antibody, human IgG1, kappa)
heavy: B1 heavy with D270H, G273P
light: not shown
notes: Anti-human IL-6 receptor IgG1
B12: IL6R-BP206/IL6R-L (antibody, human IgG1, kappa)
heavy: B1 heavy with D270H
light: not shown
notes: Anti-human IL-6 receptor IgG1
B13: IL6R-BP911/IL6R-L (antibody, human IgG1, kappa)
heavy: B1 heavy with D235E, D270H, G273P, R332K
light: not shown
notes: IgG1; P238D/A330K (EU numbering) introduced into IL6R-B3
B14: IL6R-BP107/IL6R-L (antibody, human IgG1, kappa)
heavy: B1 heavy with D235E, D270E, G273P, R332A
light: not shown
notes: IgG1; P238D/H268E (EU numbering) introduced into IL6R-B3
B15: IL6R-BP100/IL6R-L (antibody, human IgG1, kappa)
heavy: B1 heavy with D235E, S269A, D270H, G273P, R332A
light: not shown
notes: IgG1; P238D/S267A (EU numbering) introduced into IL6R-B3
B16: IL6R-2B171/IL6R-L (antibody, human IgG1, kappa)
heavy: B1 heavy with D235E, D270H, G273P, V325L, R332A
light: not shown
notes: IgG1; P238D/V323L (EU numbering) introduced into IL6R-B3
B17: IL6R-BP126/IL6R-L (antibody, human IgG1, kappa)
heavy: B1 heavy with D235E, D270H, G273P, K328L, R332A
light: not shown
notes: IgG1; P238D/K326L (EU numbering) introduced into IL6R-B3
B18: IL6R-BP118/IL6R-L (antibody, human IgG1, kappa)
heavy: B1 heavy with D235E, D270H, G273P, K328S, R332A
light: not shown
notes: IgG1; P238D/K326S (EU numbering) introduced into IL6R-B3
B19: IL6R-BP116/IL6R-L (antibody, human IgG1, kappa)
heavy: B1 heavy with D235E, D270H, G273P, K328T, R332A
light: not shown
notes: IgG1; P238D/K326T (EU numbering) introduced into IL6R-B3
B20: IL6R-BP103/IL6R-L (antibody, human IgG1, kappa)
heavy: B1 heavy with D235E, S269V, D270H, G273P, R332A
light: not shown
notes: IgG1; P238D/S267V (EU numbering) introduced into IL6R-B3
B21: IL6R-BP078/IL6R-L (antibody, human IgG1, kappa)
heavy: B1 heavy with D235E, D270H, G273P, R332M
light: not shown
notes: IgG1; P238D/A330M (EU numbering) introduced into IL6R-B3

Substitutions are numbered along the chain they refer to. Names may count otherwise.

T2 sequence (P08637 17-208 F176V): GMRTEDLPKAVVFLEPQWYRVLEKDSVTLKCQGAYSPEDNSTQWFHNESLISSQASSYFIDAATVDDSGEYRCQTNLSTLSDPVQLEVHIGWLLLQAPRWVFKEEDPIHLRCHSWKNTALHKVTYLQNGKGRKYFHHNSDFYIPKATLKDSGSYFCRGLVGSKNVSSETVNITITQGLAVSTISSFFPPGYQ

The first experiment addresses T2, FcγRIIIa type V extracellular domain, C-terminal His tag (human, UniProt P08637 17-208).
T2 construct: extracellular domain; also called FcgRIIIaV; FcγRIIIaV; not shown: His tag at the C terminus
Kind of experiment: SPR (Biacore), antibody captured on chip, FcγR extracellular domain as analyte; 1:1 kinetic fit or Equation 2 for weak binding. From the text:
IL6R-L was utilized as the common antibody L chain for all of the antibodies, the antibodies were expressed and purified according to the method of Reference Example 1, and binding to each of the FcγRs (FcγRIa, FcγRIIa H type, FcγRIIa R type, FcγRIIb, and FcγRIIIa V type) was comprehensively evaluated by the method of Reference Example 2.
(§1) Furthermore, KD(IIaR)/KD(IIb) and KD(IIaH)/KD(IIb) in the table respectively represent the value obtained by dividing the KD value of each variant for FcγRIIaR by the KD value of each variant for FcγRIIb, and the value obtained by dividing the KD value of each variant for FcγRIIaH by the KD value of each variant for FcγRIIb. KD(IIb) of the parent polypeptide/KD(IIb) of the altered polypeptide refers to the value obtained by dividing the KD value of the parent polypeptide for FcγRIIb by the KD value of each variant for FcγRIIb.
For orientation: Surface plasmon resonance follows binding to a sensor surface in real time, without labels.
B1: binding was put at a Kd of 63 µM.
For the molecule B2, the affinity, expressed as Kd, was 41 µM.
Regarding B3, the Kd (usually the free concentration of one partner at which half of the binding sites on the other are occupied at equilibrium, for simple one-to-one binding) stood at 44 µM.
Consider B4, for which the affinity, expressed as Kd, was 31 µM.
The molecule B5 had an equilibrium dissociation constant (Kd) of 72 µM.
On to B6, for which binding was put at a Kd of 33 µM.
Turning to B7, the Kd stood at 61 µM.
For the molecule B8, binding was put at a Kd of 53 µM.
Consider B9, for which the Kd was 51 µM.
In the case of B10, binding was characterised by a dissociation constant (Kd) of 73 µM.
The molecule B11 gave a Kd of 65 µM.
Molecule B12 returned a Kd of 69 µM.

The target in the next experiment is T1, FcγRIIa type R extracellular domain, …. Kind of experiment: SPR (Biacore), antibody captured, FcγR as analyte.
Description: as §1
Kinetic analyses for calculating the KD values of each altered antibody for FcγR were performed according to the following method. First, antibodies of interest were captured onto the above-mentioned sensor chips, and an Fcγ receptor diluted with the running buffer was allowed to interact. The Biacore Evaluation Software was used to globally fit the measured results to the obtained sensorgram using the 1:1 Langmuir binding model, and the association rate constant ka (L/mol/s) and the dissociation rate constant kd (1/s) were calculated; and from those values the dissociation constants KD (mol/L) were calculated.
As to B13, the Kd amounted to 16 µM.
For B14, binding was put at a Kd of 12 µM.
Regarding B15, the dissociation constant Kd is 7.8 µM.
B16 returned a Kd of 16 µM.
B17 returned a Kd of 11 µM.
On the same count and under the same terms, next, B18: 15 µM; B19: 15 µM; B20: 11 µM.
Take B21: the equilibrium dissociation constant (Kd) came to 15 µM.

The record behind these values is patent publication US20140093496A1 (Chugai, published 2014).
